Laboratory results taken from patent publication US6770740B1, “Crosslinked DNA condesate compositions and gene delivery methods” (The Regents of the University of Michigan, priority 1999, dated 2004).
Where no end group is shown, it is not given here. The star is where a group is joined. Carboxymethyl = O=C(O)C*

How the values were obtained:
[1] = Solubility of peptide DNA condensates: particle size as a function of DNA concentration; type: physicochemical; conditions: when increasing DNA concentration from 50 to 500 μg/ml
[2] = QELS particle size and zeta potential of PEG-peptide DNA condensates and co-condensates, Example 1; type: physicochemical; conditions: charge ratio of 1.8:1 or higher; 50 μg/ml DNA in Hepes
Procedure: The particle size of peptide DNA condensates were analyzed at a DNA concentration of 50 μg/ml in Hepes by quasielastic light scattering (QELS). The particle surface change was determined by zeta potential analysis using a Brookhaven ZetaPlus™ (Brookhaven Instruments).
DNA co-condensates were prepared by add-mixing AlkCWK18 and PEG-VS-CWK18 in ratios ranging from 0 to 100 mol %, and condensing DNA at a charge ratio of 2.3:1 as described above. To establish the mol ratio of peptides bound to DNA, condensates were dialyzed in a fixed volume (0.5 ml) dialyzer for 75 h against water using a 100,000 MWCO membrane. Peptide DNA condensates in the retentate (0.5 ml) were dissociated by adding 50 μl of 5 M sodium chloride in 0.1% TFA. AlkCWK18 and PEG-VS-CWK18 were quantified by injecting 1 nmol of peptide (100 μl) onto analytical RP-HPLC eluted with 0.1% TFA and a gradient of acetonitrile (5 to 65% over 30 min) while detecting tryptophan by fluorescence (λex 280 nm, λem 350 nm). The peak integration areas were used to quantify AlkCWK18 and PEG-VS-CWK18 with reference to standard curves developed for each peptide.

plasmid DNA = experiment: Fluorescent dye (thiazole orange) displacement assay of peptide binding to DNA, Example 1; conditions: corresponding to a charge ratio of 1.8:1
Procedure: Peptide DNA condensates were formed by adding 75 μg of DNA (pCMVL in 750 μl of 5 mM Hepes pH 7.4) to varying amounts of peptide (7.5 to 90 nmol in 750 μl of Hepes) while vortexing, followed by equilibration at RT for 1 h. Peptide binding to DNA was monitored by a fluorescent dye displacement assay (Wadhwa et al. 1997). A 1 μg aliquot of the peptide DNA condensate was diluted to 1 ml in Hepes containing 0.1 μM thiazole orange. The fluorescence of the intercalated dye was measured on an LS50B fluorimeter (Perkin Elmer, UK) in a microcuvette by exciting at 500 nm while monitoring emission at 530 nm.

[3] = Particle size and zeta potential of peptide DNA condensates after freeze-drying and rehydration, Example 2; type: physicochemical
Procedure: The concentration of AlkCWK18 and PEG-CWK18 were determined by UV absorbance (Trp, ε280 nm=5,600 M^−1 cm^−1). Peptide DNA condensates were prepared in 5 mM Hepes pH 5 at a peptide/DNA stoichiometry of 0.3 nmol of peptide/μg of DNA. The condensates were formed by adding 450 μL of 100 μg/mL NT-βGal drop wise to 450 μL of 30 nmol/mL AlKCWK18 or PEG-CWK18 while vortexing. Each sample was prepared in triplicate, and after a 30 min equilibration, 20-100 μL of 50 wt/vol % solutions of either glucose, mannitol, galactose, dextran or sucrose were added followed by normalization to 1 mL to give a final sugar concentration of 1-5 wt/vol % and DNA concentration of 50 μg/mL.
The mean particle size of 50 μg/mL AlkCWK18 DNA condensates were determined by quasielastic light scattering (QELS) on a Brookhaven ZetaPlus™. Samples (1 mL) were frozen rapidly in dry ice ethanol in a 1.5 mL microcentrifuge tube and then lyophilized on a Labconco™ freeze dryer for 24 h operated at a constant vacuum of 55×10^−6 mBar while maintained at room temperature (22° C.). The maximal vacuum was achieved within 2 min after applying the sample.
At the highest sucrose concentration of 5 wt/vol %, samples remained frozen throughout freeze-drying but dried to form a glassy solid after 24 h. […] Freeze-dried samples prepared in triplicate were reconstituted in 1 mL of deionized water, allowed to equilibrate for 30 min and then analyzed by QELS as described above. Large peptide DNA condensates were measured by light microscopy with magnification of 100X. The particle size of PEG-peptide DNA condensates were also measured by transmission electron microscopy (TEM) according to a published procedure (Wadhwa et al., 1997).
The relationship between pH and rehydrated peptide DNA condensate particle size was examined in 5 mM Hepes at a pH range of 3-7. The particle size of 50 μg/mL DNA condensates in 5 wt/vol % sucrose was determined by QELS before and after freeze-drying as described above.
The rehydrated particle size of AlkCWK18 or PEG-CWK18 DNA condensates were also examined at a concentration of 0.05-5 mg/mL in 5 mM Hepes pH 5 with (AlkCWK18 DNA) or without (PEG-CWK18 DNA) the addition of 5 wt/vol % sucrose. DNA condensates were freeze-dried and reconstituted to the original concentration. QELS particle size analysis before and after freeze-drying required dilution of an aliquot of the sample to concentration of 50 μg/mL. Freeze-dried 5 mg/mL PEG-CWK18 DNA condensates were also reconstituted in 0.9 wt/vol % sodium chloride and analyzed for particle size.

[4] = QELS particle size and zeta potential of glycopeptide DNA condensates, Example 3; type: physicochemical; conditions: 0.5 nmol of peptide or glycopeptide per μg of DNA; 50 μg/mL DNA in HBM
Procedure: Glycopeptide DNA condensates were formed at a plasmid DNA concentration of 50 μg/mL in HBM (5 mM Hepes 0.27 M mannitol pH 7.4). DNA condensates were formed by combining 750 μL of plasmid DNA (100 μg/mL) with 750 μL of triantennary-CWK18 (50 nmol/mL), Man9-CWK18, or AlkCWK18 while vortexing. The particle size of glycopeptide and peptide DNA condensates were analyzed at a DNA concentration of 50 μg/mL in HBM by quasielastic light scattering (QELS) (Cohen et al., 1990). The particle surface charge was determined at 50 μg/mL in HBM by zeta potential analysis using a Brookhaven ZetaPlus™ (Brookhaven Instruments).

COS 7 cells = experiment: Nuclear targeted β-galactosidase (X-gal) count of transfected COS 7 cells; type: cell-based; conditions: COS 7, 48 h, NTβGal plasmid
Procedure: The number of cells transfected in vitro was examined using a plasmid encoding nuclear targeted β-galactosidase followed by X-gal (5-bromo-4-chloro-3-indolyl-β-galactopyranoside) staining. HepG2 and COS 7 cells were transfected for 5 h as described above with either AlkCWK18 DNA, peptide II DNA condensates, or plasmid DNA and then grown in fresh media for an additional 43 h. After removing media, cells were fixed for 5 min in phosphate-buffered saline (PBS, pH 7.3) containing 1.25 vol/vol % glutaraldehyde and then stained by incubation with 0.05 wt/v % X-gal, 1 mM magnesium chloride, 10 mM potassium ferricyanide, and 10 mM potassium ferrocyanide in PBS. After 4 h at 37° C., the X-gal solution was removed and the nuclear stained blue cells were counted with a light microscope under ten power magnification by averaging the number of transfectants from nine fields. Values were analyzed for significance by one-way analysis of variance.

Substance	particle size of DNA condensates [1] [nm]	mean diameter of DNA condensates [2] [nm]	peptide:DNA stoichiometry at the asymptote of the dye displacement titration curve (relative DNA binding affinity) (plasmid DNA)	minimum sucrose concentration to bulk DNA condensates during freeze-drying ([3]; 50 μg/ml DNA condensates) [wt/vol %]	diameter of fibrous flocculates after freeze-drying and rehydration without lyoprotectant ([3]; 50 μg/ml DNA condensates, light microscopy)	upper limit of DNA condensate concentration below which rehydrated particle size was maintained ([3]; 5 wt/vol % sucrose, 5 mM Hepes pH 5) [µg/mL]	mean particle diameter during rehydration ([3]; 5 wt/vol % sucrose, DNA concentrations up to 200 μg/mL)	zeta potential ([3]; pH 3)	mean particle size of DNA condensates [4] [nm]	more cells positively stained vs. AlkCWK18 (COS 7 cells) [fold]
Alk-S-Cys-Trp-Lys18 (C(Carboxymethyl)WKKKKKKKKKKKKKKKKKK) [AlkCWK18]	60 to 400	60	0.3 nmol per μg of DNA	1	approximately 100 μm	200	less than 50 nm	+30 mV	81	–
Cys-Trp-Lys17-Cys (CWKKKKKKKKKKKKKKKKKC) [Peptide II]	–	–	–	–	–	–	–	–	–	4
